Laboratory results reported in US20030186281A1, “Modified tetracycline repressor protein compositions and methods of use” (priority 2001, published 2003).
Residue numbers refer to the chain shown, from its start. Names and notes keep the numbering of the source.

B1: TetRrevAtc4-5: revTetR(BD) I59F A61S H64Q A97T (protein)
chain: MSRLDKSKVINSALELLNEVGIEGLTTRKLAQKLGVEQPTLYWHVKNKRALLDALAVEFLSRHQDYSLPAAGESWQSFLRNNAMSFRRALLRYRDGTKVHLGTRPDEKQYDTVETQLRFMTENGFSLRDGLYAISAVSHFTLGAVLEQQEHTAALTDRPAAPDENLPPLLREALQIMDSDDGEQAFLHGLESLIRGFEVQLTALLQIV
modifications: Modified tetracycline repressor
notes: revTetR(BD) I59F A61S H64Q A97T
B2: TetRrevAtc4-9b: revTetR(BD) A56P V57L E58V L60L (protein)
chain: B1 chain with A56P, V57L, E58V, F59I, S61A, Q64H, T97A
modifications: Modified tetracycline repressor
notes: revTetR(BD) A56P V57L E58V L60L
B3: TetRrevDox4-1: revTetR(BD) D53E A54S A61P (protein)
chain: B1 chain with D53E, A54S, F59I, S61P, Q64H, T97A
modifications: Modified tetracycline repressor
notes: revTetR(BD) D53E A54S A61P
B4: TetRrev6-23: revTetR(BD) D95E A97E (protein)
chain: B1 chain with F59I, S61A, Q64H, D95E, T97E
modifications: Modified tetracycline repressor
notes: revTetR(BD) D95E A97E
B5: TetRrev6-3: revTetR(BD) V99G H100P (protein)
chain: B1 chain with F59I, S61A, Q64H, T97A, V99G, H100P
modifications: Modified tetracycline repressor
notes: revTetR(BD) V99G H100P
B6: TetRrev6-26: revTetR(BD) Y93F G96W A97E H100N (protein)
chain: B1 chain with F59I, S61A, Q64H, Y93F, G96W, T97E, H100N
modifications: Modified tetracycline repressor
notes: revTetR(BD) Y93F G96W A97E H100N
B7: TetRrevAtc4-52: revTetR(BD) D53F A54T L55M I59S H63Q (protein)
chain: B1 chain with D53F, A54T, L55M, F59S, S61A, H63Q, Q64H, T97A
modifications: Modified tetracycline repressor
notes: revTetR(BD) D53F A54T L55M I59S H63Q
B8: TetRrev04-1: revTetR(BD) G96E K98T (protein)
chain: B1 chain with F59I, S61A, Q64H, G96E, T97A, K98T
modifications: Modified tetracycline repressor
notes: revTetR(BD) G96E K98T
B9: TetRrevAtc4-53: revTetR(BD) D53F L55M I59S H63Q (protein)
chain: B1 chain with D53F, L55M, F59S, S61A, H63Q, Q64H, T97A
modifications: Modified tetracycline repressor
notes: revTetR(BD) D53F L55M I59S H63Q
B10: TetRrevAtc4-6: revTetR(BD) D53Y L55L A56P R62L (protein)
chain: B1 chain with D53Y, A56P, F59I, S61A, R62L, Q64H, T97A
modifications: Modified tetracycline repressor
notes: revTetR(BD) D53Y L55L A56P R62L
B11: TetRrevAtc4-9: revTetR(BD) L52M A56P V57L E58V L60L H188Y (protein)
chain: B1 chain with L52M, L55M, A56P, V57L, E58V, F59I, S61A, Q64H, T97A, H188Y
modifications: Modified tetracycline repressor
notes: revTetR(BD) L52M A56P V57L E58V L60L H188Y
B12: TetRrevAtc4-71: revTetR(BD) D53T L55M 56P A61S (protein)
chain: B1 chain with D53T, L55M, A56P, F59I, Q64H, T97A
modifications: Modified tetracycline repressor
notes: revTetR(BD) D53T L55M 56P A61S
B13: TetRrev6-33: revTetR(BD) A97T K98R V99G (protein)
chain: B1 chain with F59I, S61A, Q64H, K98R, V99G
modifications: Modified tetracycline repressor
notes: revTetR(BD) A97T K98R V99G
B14: TetRrevDox4-2: revTetR(BD) D53E A54S I59M A61P (protein)
chain: B1 chain with D53E, A54S, F59M, S61P, Q64H, T97A
modifications: Modified tetracycline repressor
notes: revTetR(BD) D53E A54S I59M A61P
B15: TetRrev6-25: revTetR(BD) Y93S D95E G102A (protein)
chain: B1 chain with F59I, S61A, Q64H, Y93S, D95E, T97A, G102A
modifications: Modified tetracycline repressor
notes: revTetR(BD) Y93S D95E G102A
B16: TetRrev6-27: revTetR(BD) A71T G96E (protein)
chain: B1 chain with F59I, S61A, Q64H, A71T, G96E, T97A
modifications: Modified tetracycline repressor
notes: revTetR(BD) A71T G96E
B17: TetRrev6-2: revTetR(BD) D95G G96R H100L (protein)
chain: B1 chain with F59I, S61A, Q64H, D95G, G96R, T97A, H100L
modifications: Modified tetracycline repressor
notes: revTetR(BD) D95G G96R H100L
B18: TetRrevAtc4-7: revTetR(BD) I59R L55L A61E H64N (protein)
chain: B1 chain with F59R, S61E, Q64N, T97A
modifications: Modified tetracycline repressor
notes: revTetR(BD) I59R L55L A61E H64N
B19: TetRrev6-31: revTetR(BD) G96Q G102S (protein)
chain: B1 chain with F59I, S61A, Q64H, G96Q, T97A, G102S
modifications: Modified tetracycline repressor
notes: revTetR(BD) G96Q G102S
B20: TetRrev6-34: revTetR(BD) R94L D95A H100 (protein)
chain: B1 chain with F59I, S61A, Q64H, R94L, D95A, T97A, H100Q
modifications: H100 change unspecified; Modified tetracycline repressor
notes: revTetR(BD) R94L D95A H100
B21: TetRrev6-32: revTetR(BD) L79V A97T K98R V99G (protein)
chain: B1 chain with F59I, S61A, Q64H, L79V, K98R, V99G
modifications: Modified tetracycline repressor
notes: revTetR(BD) L79V A97T K98R V99G
B22: TetRrev6-17: revTetR(BD) R94G G96W (protein)
chain: B1 chain with F59I, S61A, Q64H, R94G, G96W, T97A
modifications: Modified tetracycline repressor
notes: revTetR(BD) R94G G96W
B23: TetRrev6-35: revTetR(BD) D95Y V99E (protein)
chain: B1 chain with F59I, S61A, Q64H, D95Y, T97A, V99E
modifications: Modified tetracycline repressor
notes: revTetR(BD) D95Y V99E
B24: TetRrev6-13: revTetR(BD) G96R L101I (protein)
chain: B1 chain with F59I, S61A, Q64H, G96R, T97A, L101I
modifications: Modified tetracycline repressor
notes: revTetR(BD) G96R L101I
B25: TetRrev04-4: revTetR(BD) G96E V113A (protein)
chain: B1 chain with F59I, S61A, Q64H, G96E, T97A, V113A
modifications: Modified tetracycline repressor
notes: revTetR(BD) G96E V113A
B26: TetRrevAtc4-61: revTetR(BD) L51L A56V I59H R62L (protein)
chain: B1 chain with A56V, F59H, S61A, R62L, Q64H, T97A
modifications: Modified tetracycline repressor
notes: revTetR(BD) L51L A56V I59H R62L
B27: TetRrevAtc4-67: revTetR(BD) K48K D53Y A56G E58G (protein)
chain: B1 chain with D53Y, A56G, E58G, F59I, S61A, Q64H, T97A
modifications: Modified tetracycline repressor
notes: revTetR(BD) K48K D53Y A56G E58G
B28: TetRrevAtc4-70: revTetR(BD) D53A A61P (protein)
chain: B1 chain with D53A, F59I, S61P, Q64H, T97A
modifications: Modified tetracycline repressor
notes: revTetR(BD) D53A A61P

What follows are molecules tested on tet operator sequence (assay: β-galactosidase activity of a tetracycline-regulated promoter in transformed E. coli with revTetR, in the presence and absence of anhydrotetracycline (atc)). Conditions: RevTetR isolate cultured in the absence of anhydrotetracycline (ATC).
Type: cell-based, Escherichia coli
Procedure, shortened: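 TetR(BD) chimera mutants (TetR(B) residues 1–50, TetR(D) 51–208) expressed in E. coli regulating a tet operator-controlled lacZ. β-Galactosidase measured in Miller units at 28 °C and 37 °C with and without anhydrotetracycline; reported as percent of maximal expression without Tet repressor.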

Row | Molecule | β-Galactosidase Activity, Cultured Without ATC
1 | B1 | 98.272
2 | B2 | 107.982
3 | B3 | 36.03
4 | B4 | 101
5 | B5 | 23.0695
6 | B6 | 53.6535
7 | B7 | 105.367
8 | B8 | 102.092
9 | B9 | 87.055
10 | B10 | 108.478
11 | B11 | 97.1039
12 | B12 | 70.197
13 | B13 | 108.964
14 | B14 | 58.776
15 | B15 | 42.8584
16 | B16 | 108.105
17 | B17 | 95.487
18 | B18 | 84.416
19 | B19 | 55.658
20 | B20 | 85.725
21 | B21 | 79.3731
22 | B22 | 56.5081
23 | B23 | 74.8797
24 | B24 | 15.7835
25 | B25 | 99.655
26 | B26 | 88.785
27 | B27 | 61.815
28 | B28 | 16.119

Same assay, conditions: RevTetR isolate cultured in the presence of anhydrotetracycline (ATC)

Row | Molecule | β-Galactosidase Activity, Cultured With ATC
29 | B1 | 12.552
30 | B2 | 1.0594
31 | B3 | 5.627
32 | B4 | 49
33 | B5 | 1.3657
34 | B6 | 6.9688
35 | B7 | 5.575
36 | B8 | 44.145
37 | B9 | 6.945
38 | B10 | 23.873
39 | B11 | 1.8695
40 | B12 | 7.372
41 | B13 | 2.984
42 | B14 | 9.547
43 | B15 | 4.136
44 | B16 | 44.43
45 | B17 | 18.3
46 | B18 | 27.649
47 | B19 | 35.26
48 | B20 | 40.254
49 | B21 | 3.789
50 | B22 | 12.5
51 | B23 | 7.0255
52 | B24 | 2.5043
53 | B25 | 19.878
54 | B26 | 23.831
55 | B27 | 12.616
56 | B28 | 11.125
